The text below walks through data of patent publication US20150368616A1, “METHODS FOR INDUCTION OF CELL FATES FROM PLURIPOTENT CELLS” (THE CLEVELAND CLINIC FOUNDATION, priority 2013, published 2015).

Holding throughout (format): cell-based, human
The subject of data set [1] is forward differentiating hES culture. Put plainly: Two stage protocol: Pan-CM 8 days then second stage medium with MG132, DAPT, forskolin, sodium propionate; transcript analysis. Particulars: compared with MG132. As to the method:
As a means to optimize the differentiation of insulin producing cells a two stage protocol was used in which pluripotent cultures were incubated in the presence of Pan-CM for 8 days as a means of generating pancreatic precursors cellular population. The medium these cultures were incubated in were subsequently changed to a medium designed to enhance differentiation of a pancreatic precursor towards a beta-cell terminal fate. All second stage experiments were performed in a medium composed of DMEM/F12 containing 12 mM Glucose supplemented with 1% B27, 1% Pyruvate, 1 uM Alk5 Inh II, 500 ng/ml Noggin and 0.5 uM (1,25 OH2)-Vit D3.
Among the compounds assayed for the ability to increase insulin production in a forward differentiating culture was the proteosomal inhibitor MG132 which we used in the previous example to stabilize Ngn3 protein. We also included the gamma secretase inhibitor DAPT, which was shown in the previous example to greatly increase beta-cell formation in the developing embryonic pancreatic explant study. We also included the short fatty acid salt sodium propionate, which acts as an agonist of short-chain fatty acid receptors. We also included the adenylyl cyclase activator forskolin. We also included the nuclear hormone receptor agonist 1,25 (OH)2)-Vit D3, which binds to, and activates the VDR protein. We also used intermediate concentrations of glucose, shown by others to increase formation of insulin producing cells from pluripotent derivatives. These compounds were used individually or in combination (as outlined in FIG. 37 panel A) to increase insulin-producing endocrine cell formation in a short term Pan-CM treated forward differentiating hES culture system.

Another data set concerns hES cultures. The data set can be described thus: Individual defined medium components added throughout stages 2 and 3 of a directed differentiation protocol, qRT-PCR and IHC. The following applies: for Pdx1 relative transcript level over hES levels / FoxA2 relative transcript level over hES levels: additive throughout stage 2 and stage 3; for Pdx1 relative transcript level over hES levels: control ~2500 fold; for FoxA2 relative transcript level over hES levels: control ~75 fold. The text has this: To assay the individual protein components within the cell conditioned medium defined by the microarray analysis, the individual components were included throughout stages 2 and 3 of a directed differentiation protocol. […] Panels B-G show immunohistochemical stainings for Pdx1 and Hnf1-beta for the control reaction (panel B, D and F) and the reaction performed with the addition of Hb-EGF (panels C, E and G).
Since we have seen that the Pan-CM induced differentiation of the pluripotent culture results in an increased presence of pancreatic progenitors within forward differentiating cultures we next assayed the individual components of the cell conditioned medium as single additives throughout stage 2 and stage 3 of a directed differentiation protocol. Stage 2 and stage 3 cultures were assayed since these are the stages which normally establish pancreatic endoderm within directed differentiation protocols. An outlined schematic of the components used throughout the directed differentiation is provided in FIG. 45 panel A. Three genes were assayed throughout this series of experiments: the endodermal gene FoxA2, the early pancreatic progenitor gene Pdx1 and the endocrine progenitor gene Nkx6.1. […] The most dramatic effect noted within the genes assayed throughout this series of experiments was observed within the Pdx1 transcript levels obtained within cultures that had either Hb-EGF or FGF10 included throughout stage 2 and stage 3.
While this series of experiments have successfully established a beneficial effect for the inclusion of a FGF ligand within throughout stages 2 and 3 of a directed differentiation protocol, it should be noted many directed differentiation protocols already currently include a either FGF10 or FGF7 within either stage 2, stage 3 or both. […] This effect may have been due to the high concentration of Activin A used within these reactions 100 ng/ml. This high concentration was chosen because it is the typical concentration used in generating endoderm during stage 1 of directed differentiation protocols, however the actual concentration present within the Pan-CM was undetermined and may have been quite lower. […] This implies that the benefit due to their presence within the directed differentiation protocol may only be detectable by assaying other pancreatic markers or assaying the directed differentiation cultures at later stages, or as in them being a supportive component in a multi-factorial additive provision, yet unable to operate to induce pancreatic fates when provided alone.
A general note: Real-time PCR tracks product formation cycle by cycle.

Another data set relates to pluripotent cultures. Put plainly: Stage 4 administration of individual defined components in directed differentiation, RT-qPCR. Particulars: component added at stage 4, 4 days. The text has this:
FIG. 46 (A-B)—Stage 4 administration of defined components. Pluripotent cultures were passaged onto matrigel and maintained in the presence of MEF-conditioned medium for three days before being subjected to a directed differentiation protocol. At the end of stage 3 the individual components of the cell conditioned medium were supplemented into the cultures. After 4 days RNA was extracted from the various cultures and subjected to RT-qPCR analysis for key markers.
We next explored if there were any beneficial effects from inclusion of the individual components of the cell conditioned medium in stage 4 cultures. The individual components were assayed in a directed differentiation protocol for their ability to up regulate markers of the pancreatic truck progenitor state. […] It was noted that both Mfap5 and Nbl1 up regulated the expression of HNF6.

Another data set deals with Bmp4. Put plainly: Bmp4 stimulus of pluripotent cells with Nbl1 or Noggin: phospho smad 1/5/8 Western/IHC, ID factor RNA. Particulars: for ID2 and ID4, direct gene targets of Bmp4 signaling / Bmp4 induced phosphorylated smad 1/5/8: 24 hours; for ID2 and ID4, direct gene targets of Bmp4 signaling: RNA analysis; for Bmp4 induced phosphorylated smad 1/5/8: Western blot and IHC. The procedure:
FIG. 42 (A-C)—Nbl1 inhibits BMPs. Pluripotent cells were incubated in the presence of Bmp4 alone or in combination with Nbl1 or Noggin for 24 hours. The following day cultures were assayed for downstream targets of Bmp4 signaling. […] Note the reduced expression of the phosphorylated smads for both Nbl1 and Noggin. […] In addition the down stream activation of AFP was loss in the cultures treated with Nbl1 and Noggin.
Our initial experiment testing the ability of a Pan-CM informed defined medium ability to replicate the direct induction of pancreatic fates relied on the use of Noggin as a BMP inhibitor. This was due to the fact that Nbl1 was not available at the time so a member of the same family of proteins was used. We obtained the NBL1 protein (Sino Biologicals, cat number 10169-H02H) and determined if Nbl1 operates as a Bmp signaling inhibitor. Pluripotent cultures were subjected to a Bmp4 stimulus in the presence and absence of either Noggin or Nbl1. […] This inhibitory effect was also observed by immunohistochemical analysis of the treated cultures and is shown in FIG. 42 panel B. In addition the direct gene targets of Bmp4 signaling, ID2 and ID4, were assayed and shown to be inhibited in the presence of Noggin or Nbl1 (FIG. 42 panel C) as was the downstream target of Afp (panel B).
On the technique in general: Immunoblotting shows a protein as a band on a membrane.

Turning to `CCC(=O)[O-].[Na+]` [sodium propionate], the “effects on pancreas-specific transcript levels” value in data set [1] is recorded as “minor in comparison”.

On to Activin A: Activin receptor agonist, for which the “effect of continued incubation on the cultures” value in the data set with hES cultures (100 ng/ml throughout stage 2 and 3) is “detrimental effect on the cultures”. Moreover, in the data set with pluripotent cultures, the NKX6.1 expression entry is listed as “positively effected” and the PDX1 expression result is recorded as “significantly up-regulated”.

On to “Cxcl12: CXCR4 agonist, stromal cell derived factor one”, for which, in the data set with hES cultures, the “Pdx1 relative transcript level over hES levels” value (from here on “Pdx1 relative transcript level”) is listed as “slight increase”. Further, in the data set with pluripotent cultures, the PDX1 expression entry was “down-regulated”.

B1: Mfap5: non-canonical notch agonist (protein, UniProt Q9QZJ6 29-164, looked up)
Microfibrillar-associated …: QRGDDVPETFTDDPNLVNDPSTDDTALADITPSTDDLAGDKNATAECRDEKFACTRLYSVHRPVRQCVHQSCFTSLRRMYIINNEICSRLVCKEHEAMKDELCRQMAGLPPRRLRRSNYFRLPPCENMNLQRPDGL
For the molecule B1, in the data set on pluripotent cultures, the HNF6 expression result is on record as “up regulated”, the NKX6.1 expression entry is “positively effected” and the PDX1 expression result is reported as “significantly up-regulated”.

B2: Noggin: BMP inhibitor (protein, UniProt Q13253 28-232, looked up)
Noggin: QHYLHIRPAPSDNLPLVDLIEHPDPIFDPKEKDLNETLLRSLLGGHYDPGFMATSPPEDRPGGGGGAAGGAEDLAELDQLLRQRPSGAMPSEIKGLEFSEGLAQGKKQRLSKKLRRKLQMWLWSQTFCPVLYAWNDLGSRFWPRYVKVGSCFSKRSCSVPEGMVCKPSKSVHLTVLRWRCQRRGGQRCGWIPIQYPIISECKCSC
In the case of B2, in the data set with Bmp4, the “ID2 and ID4, direct gene targets of Bmp4 signaling” value was “inhibited”; the “Bmp4 induced phosphorylated smad 1/5/8” value was “failed to produce this BMP specific phosphorylation event”.

B3: Hb-EGF: EGFR agonist (protein, UniProt Q99075 63-148, looked up)
Heparin-binding EGF-like …: DLQEADLDLLRVTLSSKPQALATPNKEEHGKRKKKGKGLGKKRDPCLRKYKDFCIHGECKYVKELRAPSCICHPGYHGERCHGLSL
Consider B3, for which, in the data set on hES cultures, the “FoxA2 relative transcript level over hES levels” value is about 125 fold and the “Pdx1 relative transcript level” value is listed as about 8500 fold. The PDX1 expression result in the data set on pluripotent cultures is “down-regulated”.

B4: Il11: IL11R agonist (protein, UniProt P47873 22-199, looked up)
Interleukin-11: PGPPAGSPRVSSDPRADLDSAVLLTRSLLADTRQLAAQMRDKFPADGDHSLDSLPTLAMSAGTLGSLQLPGVLTRLRVDLMSYLRHVQWLRRAGGPSLKTLEPELGALQARLERLLRRLQLLMSRLALPQAAPDQPVIPLGPPASAWGSIRAAHAILGGLHLTLDWAVRGLLLLKTRL
As for B4, in the data set with hES cultures, the “FoxA2 relative transcript level over hES levels” value is about 160 fold and the “Pdx1 relative transcript level” value is given as “slight increase”. For the same molecule, in the data set on pluripotent cultures, the NKX6.1 expression entry is reported as “positively effected” and the PDX1 expression entry is “significantly up-regulated”.

B5: FGF10: FGF growth factor (protein, UniProt O15520 38-208, looked up)
Fibroblast growth factor 10: QALGQDMVSPEATNSSSSSFSSPSSAGRHVRSYNHLQGDVRWRKLFSFTKYFLKIEKNGKVSGTKKENCPYSILEITSVEIGVVAVKAINSNYYLAMNKKGKLYGSKEFNNDCKLKERIEENGYNTYASFNWQHNGRQMYVALNGKGAPRRGQKTRRKNTSAHFLPMVVHS
As for B5, the “Pdx1 relative transcript level” value in the data set on hES cultures is recorded as about 8500 fold.

B6: Nbl1: DAN family protein, NBL1 protein (Sino Biologicals, cat number 10169-H02H) (protein, UniProt P41271 17-181, looked up)
Neuroblastoma suppressor of …: AAPPPINKLALFPDKSAWCEAKNITQIVGHSGCEAKSIQNRACLGQCFSYSVPNTFPQSTESLVHCDSCMPAQSMWEIVTLECPGHEEVPRVDKLVEKILHCSCQACGKEPSHEGLSVYVQGEDGPGSQPGTHPHPHPHPHPGGQTPEPEDPPGAPHTEEEGAED
In the case of B6, in the data set with Bmp4, the “function on Bmp4 signaling” value is reported as “functions as a Bmp4 inhibitor”; the “ID2 and ID4, direct gene targets of Bmp4 signaling” value is recorded as “inhibited”; the “Bmp4 induced phosphorylated smad 1/5/8” value is “failed to produce this BMP specific phosphorylation event”. In addition, in the data set with pluripotent cultures, the HNF6 expression result is “up regulated” and the NKX6.1 expression entry is reported as “positively effected”.
